T1: 15N-13C-2D triply labeled MPER 27mer (HIV-1 (HxB2))
T1 chain: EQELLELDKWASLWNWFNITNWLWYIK

T2: full-length MPER segment (peptide containing the C-helical MPER region) (HIV-1 HXB2, UniProt P04578)
T2 chain: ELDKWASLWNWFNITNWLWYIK

T3: MPER peptide QQEKNEQELLELDKWASLWNWFNI (binding analysis in membrane environment) (HIV-1 HXB2)
T3 chain: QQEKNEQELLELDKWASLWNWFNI


Key:
[1] = biological target: T1, 15N-13C-2D triply labeled MPER 27mer; assay: NMR chemical shift perturbation and cross-saturation transfer
[2] = biological target: T2, full-length MPER segment (peptide …); assay: SPR
[3] = biological target: trimeric ADA strain HIV-1 envelope protein GP160 (HIV-1 subtype B, isolate ADA, UniProt Q6TAN8, strain); assay: flow cytometry on cells
[4] = biological target: T3, MPER peptide QQEKNEQELLELDKWASLWNWFNI …; assay: SPR
[5] = biological target: wt MPER peptide of the alanine scan (HIV-1 HXB2, UniProt P04578); assay: SPR

| Binder | binding result [1] | binding result [2] | % of cells stained [3] | Kd [4] | binding result [5] |
| --- | --- | --- | --- | --- | --- |
| 2F5 Fab, wild type (Fab, V domains shown) VH: RITLKESGPPLVKPTQTLTLTCSFSGFSLSDFGVGVGWIRQPPGKALEWLAIIYSDDDKRYSPSLNTRLTITKDTSKNQVVLVMTRVSPVDTATYFCAHRRGPTTLFGVPIARGPVNAMDVWGQGITVTISS VL: ALQLTQSPSSLSASVGDRITITCRASQGVTSALAWYRQKPGSPPQLLIYDASSLESGVPSRFSGSGSGTEFTLTISTLRPEDFATYYCQQLHFYPHTFGGGTRVDVR | binds | – | – | – | – |
| 2F5 broadly neutralizing monoclonal antibody, wild type (antibody, V domains shown) VH: RITLKESGPPLVKPTQTLTLTCSFSGFSLSDFGVGVGWIRQPPGKALEWLAIIYSDDDKRYSPSLNTRLTITKDTSKNQVVLVMTRVSPVDTATYFCAHRRGPTTLFGVPIARGPVNAMDVWGQGITVTISS VL: ALQLTQSPSSLSASVGDRITITCRASQGVTSALAWYRQKPGSPPQLLIYDASSLESGVPSRFSGSGSGTEFTLTISTLRPEDFATYYCQQLHFYPHTFGGGTRVDVR | – | binds | 36 % of cells stained | 3.1 nM | binds |
| 2F5m F100BS monoclonal antibody (antibody, V domains shown) VH: RITLKESGPPLVKPTQTLTLTCSFSGFSLSDFGVGVGWIRQPPGKALEWLAIIYSDDDKRYSPSLNTRLTITKDTSKNQVVLVMTRVSPVDTATYFCAHRRGPTTLSGVPIARGPVNAMDVWGQGITVTISS VL: ALQLTQSPSSLSASVGDRITITCRASQGVTSALAWYRQKPGSPPQLLIYDASSLESGVPSRFSGSGSGTEFTLTISTLRPEDFATYYCQQLHFYPHTFGGGTRVDVR | – | binds | 12 % of cells stained | 97 nM | binds |
| 2F5m I100FS monoclonal antibody (antibody, V domains shown) VH: RITLKESGPPLVKPTQTLTLTCSFSGFSLSDFGVGVGWIRQPPGKALEWLAIIYSDDDKRYSPSLNTRLTITKDTSKNQVVLVMTRVSPVDTATYFCAHRRGPTTLFGVPSARGPVNAMDVWGQGITVTISS VL: ALQLTQSPSSLSASVGDRITITCRASQGVTSALAWYRQKPGSPPQLLIYDASSLESGVPSRFSGSGSGTEFTLTISTLRPEDFATYYCQQLHFYPHTFGGGTRVDVR | – | binds | 20 % of cells stained | 28 nM | binds |
| 2F5m L100AS F100BS monoclonal antibody (antibody, V domains shown) VH: RITLKESGPPLVKPTQTLTLTCSFSGFSLSDFGVGVGWIRQPPGKALEWLAIIYSDDDKRYSPSLNTRLTITKDTSKNQVVLVMTRVSPVDTATYFCAHRRGPTTSSGVPIARGPVNAMDVWGQGITVTISS VL: ALQLTQSPSSLSASVGDRITITCRASQGVTSALAWYRQKPGSPPQLLIYDASSLESGVPSRFSGSGSGTEFTLTISTLRPEDFATYYCQQLHFYPHTFGGGTRVDVR | – | binds | 3.9 % of cells stained | 476 nM | – |
